# In IntAct's records for PubMed 29039417:
# B1: Protein PTHB1 (Homo sapiens), Q3SYG4 (parent)
# chain: MSLFKARDWWSTILGDKEEFDQGCLCLANVDNSGNGQDKIIVGSFMGYLRIFSPHPAKTGDGAQAEDLLLEVDLRDPVLQVEVGKFVSGTEMLHLAVLHSRKLCVYSVSGTLGNVEHGNQCQMKLMYEHNLQRTACNMTYGSFGGVKGRDLICIQSMDGMLMVFEQESYAFGRFLPGFLLPGPLAYSSRTDSFLTVSSCQQVESYKYQVLAFATDADKRQETEQQKLGSGKRLVVDWTLNIGEQALDICIVSFNQSASSVFVLGERNFFCLKDNGQIRFMKKLDWSPSCFLPYCSVSEGTINTLIGNHNNMLHIYQDVTLKWATQLPHIPVAVRVGCLHDLKGVIVTLSDDGHLQCSYLGTDPSLFQAPNVQSRELNYDELDVEMKELQKIIKDVNKSQGVWPMTEREDDLNVSVVVSPNFDSVSQATDVEVGTDLVPSVTVKVTLQNRVILQKAKLSVYVQPPLELTCDQFTFEFMTPDLTRTVSFSVYLKRSYTPSELEGNAVVSYSRPTDRNPDGIPRVIQCKFRLPLKLICLPGQPSKTASHKITIDTNKSPVSLLSLFPGFASQSDDDQVNVMGFHFLGGARITVLASKTSQRYRIQSEQFEDLWLITNELILRLQEYFEKQGVKDFACSFSGSIPLQEYFELIDHHFELRINGEKLEELLSERAVQFRAIQRRLLARFKDKTPAPLQHLDTLLDGTYKQVIALADAVEENQGNLFQSFTRLKSATHLVILLIALWQKLSADQVAILEAAFLPLQEDTQELGWEETVDAAISHLLKTCLSKSSKEQALNLNSQLNIPKDTSQLKKHITLLCDRLSKGGRLCLSTDAAAPQTMVMPGGCTTIPESDLEERSVEQDSTELFTNHRHLTAETPRPEVSPLQGVSE
# partner: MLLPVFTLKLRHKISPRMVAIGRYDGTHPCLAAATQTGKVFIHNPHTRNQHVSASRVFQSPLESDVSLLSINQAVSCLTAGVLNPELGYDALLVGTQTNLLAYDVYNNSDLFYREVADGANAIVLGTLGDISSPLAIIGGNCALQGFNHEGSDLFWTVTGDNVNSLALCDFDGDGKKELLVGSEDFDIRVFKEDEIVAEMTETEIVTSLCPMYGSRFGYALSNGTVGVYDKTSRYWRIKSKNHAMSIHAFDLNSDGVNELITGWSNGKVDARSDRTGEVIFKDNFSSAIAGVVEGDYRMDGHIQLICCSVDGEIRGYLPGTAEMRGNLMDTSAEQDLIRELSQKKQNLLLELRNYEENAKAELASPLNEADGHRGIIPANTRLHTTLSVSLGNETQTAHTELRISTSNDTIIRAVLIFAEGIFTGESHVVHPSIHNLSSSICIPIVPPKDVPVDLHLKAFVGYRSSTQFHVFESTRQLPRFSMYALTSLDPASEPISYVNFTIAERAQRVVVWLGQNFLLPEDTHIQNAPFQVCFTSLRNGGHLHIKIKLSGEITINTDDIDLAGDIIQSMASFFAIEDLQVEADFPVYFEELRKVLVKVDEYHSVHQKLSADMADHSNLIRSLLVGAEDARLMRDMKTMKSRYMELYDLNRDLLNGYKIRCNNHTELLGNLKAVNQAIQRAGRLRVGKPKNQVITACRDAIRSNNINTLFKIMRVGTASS
# Variants of: B1
# Conditions: with bbs2_human BBS2, Q9BXC9
row,effect of a mutation on the interaction,Variant
1,disrupting interaction strength,A690E
2,disrupting interaction strength,A690F
3,with no effect,A690K
4,disrupting interaction strength,A690V
5,with no effect,P691A
6,with no effect,P691E
7,with no effect,P691K
8,disrupting interaction strength,P691L
9,disrupting interaction strength,P691S
10,with no effect,L692A
11,with no effect,L692E
12,with no effect,L692K
13,with no effect,Q693A
14,with no effect,Q693E
15,with no effect,Q693K
16,with no effect,H694A
17,with no effect,H694E
18,with no effect,H694K
19,disrupting interaction strength,H694S
20,disrupting interaction strength,H694Y
21,with no effect,L695A
22,with no effect,L695E
23,with no effect,L695K
24,disrupting interaction strength,L695M
25,with no effect,D696A

row,effect of a mutation on the interaction,Variant
1,with no effect,D696E
2,with no effect,D696K
3,with no effect,T697A
4,disrupting interaction strength,T697C
5,with no effect,T697E
6,with no effect,T697K
7,with no effect,L698A
8,with no effect,L698E
9,with no effect,L698K
10,with no effect,L699A
11,with no effect,L699E
12,disrupting interaction strength,L699K
13,with no effect,D700A
14,with no effect,D700E
15,with no effect,D700K
16,with no effect,G701A
17,disrupting interaction strength,G701E
18,with no effect,G701K
19,with no effect,T702A
20,disrupting interaction strength,T702C
21,with no effect,T702E
22,with no effect,T702K
23,with no effect,Y703A
24,with no effect,Y703E
25,with no effect,Y703K

row,effect of a mutation on the interaction,Variant
1,with no effect,K704A
2,with no effect,K704E
3,with no effect,Q705A
4,with no effect,Q705E
5,with no effect,Q705K
6,disrupting interaction strength,Q705M
7,with no effect,V706A
8,with no effect,V706E
9,with no effect,V706K
10,with no effect,I707A
11,with no effect,I707E
12,with no effect,I707K
13,with no effect,A708E
14,with no effect,A708K
15,with no effect,L709A
16,with no effect,L709E
17,with no effect,L709K
18,with no effect,A710E
19,with no effect,A710K
20,with no effect,D711A
21,with no effect,D711E
22,with no effect,D711K
23,with no effect,A712E
24,with no effect,A712K
25,with no effect,V713A

row,effect of a mutation on the interaction,Variant
1,with no effect,V713E
2,with no effect,V713K
3,with no effect,E714A
4,with no effect,E714K
5,with no effect,E715A
6,with no effect,E715K
7,disrupting interaction strength,N716A
8,with no effect,N716E
9,with no effect,N716K
10,with no effect,Q717A
11,with no effect,Q717E
12,with no effect,Q717K
13,with no effect,G718A
14,disrupting interaction strength,G718D
15,with no effect,G718E
16,with no effect,G718K
17,with no effect,N719A
18,with no effect,N719E
19,with no effect,N719K
20,with no effect,L720A
21,with no effect,L720E
22,with no effect,L720K
23,with no effect,F721A
24,with no effect,F721E
25,with no effect,F721K

row,effect of a mutation on the interaction,Variant
1,with no effect,Q722A
2,with no effect,Q722E
3,with no effect,Q722K
4,disrupting interaction strength,Q722T
5,with no effect,S723A
6,with no effect,S723E
7,with no effect,S723K
8,disrupting interaction strength,S723P
9,with no effect,F724A
10,with no effect,F724E
11,with no effect,F724K
12,with no effect,T725A
13,with no effect,T725E
14,with no effect,T725K
15,with no effect,R726A
16,with no effect,R726E
17,with no effect,R726K
18,with no effect,L727A
19,with no effect,L727E
20,with no effect,L727K
21,with no effect,K728A
22,with no effect,K728E
23,with no effect,S729A
24,with no effect,S729E
25,with no effect,S729K

row,effect of a mutation on the interaction,Variant
1,with no effect,A730E
2,with no effect,A730K
3,with no effect,T731A
4,with no effect,T731E
5,with no effect,T731K
6,with no effect,H732A
7,with no effect,H732E
8,with no effect,H732K
9,with no effect,L733A
10,with no effect,L733E
11,with no effect,L733K
12,with no effect,V734A
13,with no effect,V734E
14,with no effect,V734K
15,with no effect,I735A
16,with no effect,I735E
17,with no effect,I735K
18,with no effect,L736A
19,with no effect,L736E
20,with no effect,L736K
21,with no effect,L737A
22,with no effect,L737E
23,with no effect,L737K
24,with no effect,I738A
25,with no effect,I738E

row,effect of a mutation on the interaction,Variant
1,with no effect,I738K
2,with no effect,A739E
3,with no effect,A739K
4,with no effect,L740A
5,with no effect,L740E
6,with no effect,L740K
7,disrupting interaction strength,W741A
8,with no effect,W741E
9,disrupting interaction strength,W741G
10,with no effect,W741K
11,disrupting interaction strength,W741L
12,disrupting interaction strength,W741R
13,disrupting interaction strength,W741S
14,with no effect,Q742A
15,with no effect,Q742E
16,with no effect,Q742K
17,disrupting interaction strength,Q742L
18,disrupting interaction strength,Q742S
19,with no effect,K743A
20,with no effect,K743E
21,with no effect,L744A
22,with no effect,L744E
23,disrupting interaction strength,L744F
24,with no effect,L744K

# Variants of: B1
# Conditions: with bbs2_human BBS2, Q9BXC9
# Remark: another data set of the same source
row,effect of a mutation on the interaction,Variant
1,with no effect,W741A
